Reference: the RNAGym collection of RNA variant scans (doi:10.7554/elife.80360)

B1: HDV Ribozyme (parent)
chain: GGCCGGCAUGGUCCCAGCCUCCUCGCUGGCGCCGGCUGGGCAACAUUCCGAGGGGACCGUCCCCUCGGUAAUGGCGAAUGGGACCCA

Variants of: B1
Assay: self-cleavage, relative activity (ratio to wild type); higher = more cleavage; co-transcriptional
With G40U C57U the self-cleavage was 0.712. With C41G C61A the self-cleavage was 0.928. For A42G C84U, the self-cleavage was 0.525. A42G C84A gave a self-cleavage of 0.554. For C41U U60A, the self-cleavage was 0.815. In the case of C41U C49A, the self-cleavage is reported as 0.563. With C41U C49G the self-cleavage was 0.317. In the case of C41A G74C, the self-cleavage is reported as 0.366. Variant G40U U72G has a self-cleavage of 0.23. With G40A A71C the self-cleavage was 0.485. Work on G40C A87G yielded a self-cleavage of 0.215. G40A A43U gave a self-cleavage of 0.446. Work on G39C C44U yielded a self-cleavage of 0.0707. G39U C58A gave a self-cleavage of 0.665. G40C U65C showed a self-cleavage of 0.155. Work on G39U C57U yielded a self-cleavage of 0.831. G39U C57A showed a self-cleavage of 0.941. G40A G74A gave a self-cleavage of 0.726. For C41U A87U, the self-cleavage was 1. G39C C41U gave a self-cleavage of 0.554. G39C C41A gave a self-cleavage of 0.802. C41A C62A showed a self-cleavage of 0.77. In the case of G39U U65C, the self-cleavage is reported as 0.752. Variant G39A G73U has a self-cleavage of 0.0845. G39A G73A gave a self-cleavage of 0.0801. G39C U79A gave a self-cleavage of 0. G40C U72G gave a self-cleavage of 0.158. With C41A A83C the self-cleavage was 0.312. G39C G68C gave a self-cleavage of 0.339. Variant G40C C63G has a self-cleavage of 0.138. For A42C C64G, the self-cleavage was 0.277. C41G C66U gave a self-cleavage of 0.683. Variant C41U C66G has a self-cleavage of 0.926. For G39C U47A, the self-cleavage was 0.243. G40C C48U gave a self-cleavage of 0.326. In the case of G40A A78C, the self-cleavage is reported as 0.233. Variant G39U U69C has a self-cleavage of 0.769. In the case of G39U U69A, the self-cleavage is reported as 0.492. In the case of C41G A71G, the self-cleavage is reported as 0.554. With G39C C49U the self-cleavage was 0.166. For G39C C49A, the self-cleavage was 0.237. For C41G A83C, the self-cleavage was 0.123. For G39C G81A, the self-cleavage was 0.185. For A42C C48G, the self-cleavage was 0.229. For A42C G53U, the self-cleavage was 0.231. In the case of A42C G53C, the self-cleavage is reported as 0.297. For G40A U72A, the self-cleavage was 0.446. Work on C41G G68A yielded a self-cleavage of 0.45. Variant C41G G68C has a self-cleavage of 0.483. Work on A42C G50A yielded a self-cleavage of 0.325. G40A G68U gave a self-cleavage of 0.997. G40A G68A showed a self-cleavage of 1.01. Work on C41A G52U yielded a self-cleavage of 0.772. Work on G39U G52C yielded a self-cleavage of 0.831. G40A U46G gave a self-cleavage of 0.554. G39C C66U showed a self-cleavage of 0.136. Work on G40U U46G yielded a self-cleavage of 0.136. G39C A77G gave a self-cleavage of 0.243. G39A G50U showed a self-cleavage of 0.441. G40U A70C gave a self-cleavage of 0.391. In the case of G40U G50U, the self-cleavage is reported as 1.01. In the case of C41A A51U, the self-cleavage is reported as 0.981. In the case of C41G G67A, the self-cleavage is reported as 0.456. For G40C U79C, the self-cleavage was 0.0509. A42C A83U gave a self-cleavage of 0.122. For A42C A83G, the self-cleavage was 0.129. G40U A56G gave a self-cleavage of 0.677. Variant G40U A56U has a self-cleavage of 0.801. With G40C C75U the self-cleavage was 0.0652. Variant G40U G80C has a self-cleavage of 0.0692. For G39U A87U, the self-cleavage was 0.683. Variant A42C C75U has a self-cleavage of 0.148. Work on A42C C75G yielded a self-cleavage of 0.0852. G40U C62G showed a self-cleavage of 0.467. A42G C62G gave a self-cleavage of 0.469. Work on A42C A78G yielded a self-cleavage of 0.317. In the case of C41G G73A, the self-cleavage is reported as 0.712. For C41G G73C, the self-cleavage was 0.877. For G39U C75A, the self-cleavage was 0.166. Work on G39U C75U yielded a self-cleavage of 0.0923. Work on G39U C75G yielded a self-cleavage of 0.0978. With C41A C84A the self-cleavage was 0.435. G40C C61G gave a self-cleavage of 0.241. In the case of G40C C86U, the self-cleavage is reported as 0.372. G39C C84U showed a self-cleavage of 0.196. Variant A42G C61G has a self-cleavage of 0.831. For A42G C61U, the self-cleavage was 0.656. C41G A87G showed a self-cleavage of 0.772. For C41U A51C, the self-cleavage was 0.916. Variant C41U A51U has a self-cleavage of 0.932. G40A A51C showed a self-cleavage of 0.984. G40C A71C showed a self-cleavage of 0.121. C41U G52U showed a self-cleavage of 0.868. G40C A42C gave a self-cleavage of 0.111. Work on G40C A42U yielded a self-cleavage of 0.151. G39U C49U showed a self-cleavage of 0.649. In the case of G39U C49A, the self-cleavage is reported as 0.604. Variant G39C G73C has a self-cleavage of 0.151. Variant G40C C41G has a self-cleavage of 0.222. In the case of G40C C41U, the self-cleavage is reported as 0.629. For C41A C86U, the self-cleavage was 0.904. With G40U G53C the self-cleavage was 0.519. Variant G39C G67A has a self-cleavage of 0.134. G39C G67C gave a self-cleavage of 0.232. Work on G39C A78C yielded a self-cleavage of 0.125. In the case of G39C A78G, the self-cleavage is reported as 0.0573. Work on G40U C49A yielded a self-cleavage of 0.787. In the case of G40U C49U, the self-cleavage is reported as 0.817. Variant A42C U46C has a self-cleavage of 0.214. With G39U C41A the self-cleavage was 0.719. C41A G53U gave a self-cleavage of 0.969. In the case of C41A G53C, the self-cleavage is reported as 0.848. For A42C G55C, the self-cleavage was 0.243. C41U C61A gave a self-cleavage of 1.12. C41U C58U showed a self-cleavage of 1.17. G40A G52C gave a self-cleavage of 0.986. G40C C84A showed a self-cleavage of 0.0831. A42G C58A gave a self-cleavage of 0.655. C41U G80C showed a self-cleavage of 0.188. With C41U G80U the self-cleavage was 0.174. With C41G G52U the self-cleavage was 0.554. C41G G52A showed a self-cleavage of 0.562. Work on A42C A45U yielded a self-cleavage of 0.306. Work on C41G A77G yielded a self-cleavage of 0.268. C41A C85U showed a self-cleavage of 0.849. A42C U72C gave a self-cleavage of 0.107. With C41U G68A the self-cleavage was 0.743. C41U G68C gave a self-cleavage of 0.636. G40C U69G showed a self-cleavage of 0.361. Variant C41A A56C has a self-cleavage of 0.937. With A42C G59C the self-cleavage was 0.397. Work on C41A U60A yielded a self-cleavage of 0.979. Work on C41A U60G yielded a self-cleavage of 0.522. For A42C C58U, the self-cleavage was 0.322. For C41U A83G, the self-cleavage was 0.712. In the case of G39C G40C, the self-cleavage is reported as 0.215. For G39C G40U, the self-cleavage was 0.487. G40A U69C gave a self-cleavage of 0.876. Variant G40A U69A has a self-cleavage of 0.892. G39C C57U gave a self-cleavage of 0.345. For G39C C57G, the self-cleavage was 0.415. C41A G59U gave a self-cleavage of 1.11. Variant A42G C57G has a self-cleavage of 0.453. With G39A G68C the self-cleavage was 0.441. For G39A G68U, the self-cleavage was 0.554. With G40C C64U the self-cleavage was 0.223. With G40A U60G the self-cleavage was 0.916. Work on G39U C63A yielded a self-cleavage of 0.598. G40U G54A showed a self-cleavage of 0.694. Variant G40A A70C has a self-cleavage of 0.849. In the case of G40C A83C, the self-cleavage is reported as 0.0755. Variant G39C G53A has a self-cleavage of 0.308. For A42G A71C, the self-cleavage was 0.151. Work on G39U A51U yielded a self-cleavage of 0.611. With C41A G73C the self-cleavage was 0.554. With G40A U65G the self-cleavage was 0.601. Work on G40A U65C yielded a self-cleavage of 1.12. Variant G39A U46G has a self-cleavage of 0.0923. Work on G39A U46C yielded a self-cleavage of 0.181. A42C C44G gave a self-cleavage of 0.217. With G40A G81A the self-cleavage was 0.475. For A42C U65G, the self-cleavage was 0.831. Variant A42C U65A has a self-cleavage of 0.155. In the case of G40U C63G, the self-cleavage is reported as 0.348. In the case of G40U C63U, the self-cleavage is reported as 0.866. Variant C41G A56C has a self-cleavage of 0.942. In the case of G40C G55U, the self-cleavage is reported as 0.205.
